Test [1] concerns the target T1, P12SHb.
T1 chain: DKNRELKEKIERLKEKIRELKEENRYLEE
The test is described as follows: two-hybrid library CCNG1.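 Also: natural log of median RNA to DNA barcode read ratio; higher means stronger binding.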

In test [2] the target is T2, P9SHb.
T2 chain: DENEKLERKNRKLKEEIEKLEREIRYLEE
Description: two-hybrid library CCNG1.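 Also: natural log of median RNA to DNA barcode read ratio; higher means stronger binding.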

Test [3] has as its target T3, P4SHb.
T3 chain: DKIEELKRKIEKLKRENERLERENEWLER
Description: two-hybrid library CCNG1.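 Also: natural log of median RNA to DNA barcode read ratio; higher means stronger binding.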

Test [4] concerns the target T4, P7SHb.
T4 chain: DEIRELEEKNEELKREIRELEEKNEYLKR
Description: two-hybrid library CCNG1.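 Also: natural log of median RNA to DNA barcode read ratio; higher means stronger binding.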

Test [5] has as its target T5, P6SHb.
T5 chain: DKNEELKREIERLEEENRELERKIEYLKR
Description: two-hybrid library CCNG1.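 Also: natural log of median RNA to DNA barcode read ratio; higher means stronger binding.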

The target of test [6] is T6, P10SHb.
T6 chain: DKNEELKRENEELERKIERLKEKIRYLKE
Description: two-hybrid library CCNG1.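 Also: natural log of median RNA to DNA barcode read ratio; higher means stronger binding.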

Test [7] deals with T7, P5SHb.
T7 chain: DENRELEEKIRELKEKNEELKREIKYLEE
Description: two-hybrid library CCNG1.

Test [8] has as its target T8, P11SHb.
T8 chain: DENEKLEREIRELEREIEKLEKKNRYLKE
Description: two-hybrid library CCNG1.

Test [9] addresses T9, P1SHb.
T9 chain: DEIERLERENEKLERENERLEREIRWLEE
The test is described as follows: two-hybrid library CCNG1.

Test [10] concerns the target T10, P2SHb.
T10 chain: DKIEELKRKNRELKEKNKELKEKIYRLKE
Description: two-hybrid library CCNG1.

The target of test [11] is T11, P8SHb.
T11 chain: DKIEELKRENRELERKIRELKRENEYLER
Description: two-hybrid library CCNG1.

In test [12] the target is T12, P3SHb.
T12 chain: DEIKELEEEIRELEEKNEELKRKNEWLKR
The test is described as follows: two-hybrid library CCNG1.

Test [13] concerns the target T13, 4H754-bN.
T13 chain: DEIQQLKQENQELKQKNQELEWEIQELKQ
The test is described as follows: two-hybrid library CCNG1.

Test [14] addresses T14, 4H1158-bN.
T14 chain: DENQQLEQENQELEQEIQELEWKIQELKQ
The test is described as follows: two-hybrid library CCNG1.

For test [15], the target named is T15, 4H3926-bN.
T15 chain: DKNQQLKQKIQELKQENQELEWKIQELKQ
The test is described as follows: two-hybrid library CCNG1. The following applies: mean of both orientations.

Test [16] addresses T16, 4H1710-bN.
T16 chain: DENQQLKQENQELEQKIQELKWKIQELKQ
The test is described as follows: two-hybrid library CCNG1.

In test [17] the target is T17, 4H3298-bN.
T17 chain: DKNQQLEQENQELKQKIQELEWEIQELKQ
Description: two-hybrid library CCNG1.

In test [18] the target is T18, 4H112-bN.
T18 chain: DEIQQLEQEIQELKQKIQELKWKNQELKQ
The test is described as follows: two-hybrid library CCNG1.

Test [19] deals with T19, 4H780-bN.
T19 chain: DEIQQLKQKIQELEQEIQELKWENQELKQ
The test is described as follows: two-hybrid library CCNG1.

Test [20] deals with T20, 4H626-bN.
T20 chain: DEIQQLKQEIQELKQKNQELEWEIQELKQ
The test is described as follows: two-hybrid library CCNG1.

The target in test [21] is T21, 4H1985-bN.
T21 chain: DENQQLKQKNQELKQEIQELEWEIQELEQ
Description: two-hybrid library CCNG1.

Test [22] concerns the target T22, 4H457-bN.
T22 chain: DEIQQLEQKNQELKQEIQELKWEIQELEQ
The test is described as follows: two-hybrid library CCNG1.

The target of test [23] is T23, 4H2702-bN.
T23 chain: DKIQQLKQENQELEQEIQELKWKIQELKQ
Description: two-hybrid library CCNG1.

Test [24] has as its target T24, 4H1373-bN.
T24 chain: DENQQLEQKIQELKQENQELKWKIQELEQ
The test is described as follows: two-hybrid library CCNG1.

Test [25] concerns the target T25, 4H855-bN.
T25 chain: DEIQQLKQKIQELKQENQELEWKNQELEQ
The test is described as follows: two-hybrid library CCNG1.

The target in test [26] is T26, 4H346-bN.
T26 chain: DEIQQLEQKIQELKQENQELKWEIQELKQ
The test is described as follows: two-hybrid library CCNG1.

The target in test [27] is T27, 4H3175-bN.
T27 chain: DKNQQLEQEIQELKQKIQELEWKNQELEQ
Description: two-hybrid library CCNG1.

In test [28] the target is T28, 4H3010-bN.
T28 chain: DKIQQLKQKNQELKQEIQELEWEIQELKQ
Description: two-hybrid library CCNG1.

Test [29] has as its target T29, 4H906-bN.
T29 chain: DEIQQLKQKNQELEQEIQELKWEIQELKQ
The test is described as follows: two-hybrid library CCNG1.

The target in test [30] is T30, 4H170-bN.
T30 chain: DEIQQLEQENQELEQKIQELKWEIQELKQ
The test is described as follows: two-hybrid library CCNG1.

The target of test [31] is T31, 4H3628-bN.
T31 chain: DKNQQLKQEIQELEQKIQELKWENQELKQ
The test is described as follows: two-hybrid library CCNG1.

Test [32] deals with T32, 4H1831-bN.
T32 chain: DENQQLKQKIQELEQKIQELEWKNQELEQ
Description: two-hybrid library CCNG1.

The target of test [33] is T33, 4H575-bN.
T33 chain: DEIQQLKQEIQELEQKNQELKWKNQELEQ
The test is described as follows: two-hybrid library CCNG1.

The target in test [34] is T34, 4H797-bN.
T34 chain: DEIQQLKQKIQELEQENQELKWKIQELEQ
Description: two-hybrid library CCNG1.

The target in test [35] is T35, 4H683-bN.
T35 chain: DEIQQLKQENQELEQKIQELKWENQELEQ
The test is described as follows: two-hybrid library CCNG1.

For test [36], the target named is T36, 4H2627-bN.
T36 chain: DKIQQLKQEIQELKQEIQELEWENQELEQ
Description: two-hybrid library CCNG1.

Test [37] has as its target T37, 4H4073-bN.
T37 chain: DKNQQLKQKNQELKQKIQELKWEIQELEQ
Description: two-hybrid library CCNG1.

The target of test [38] is T38, 4H3162-bN.
T38 chain: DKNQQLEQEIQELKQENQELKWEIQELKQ
The test is described as follows: two-hybrid library CCNG1.

Test [39] addresses T39, 4H1081-bN.
T39 chain: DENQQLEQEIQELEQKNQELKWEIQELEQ
The test is described as follows: two-hybrid library CCNG1. The following applies: mean of both orientations.

Test [40] concerns the target T40, 4H918-bN.
T40 chain: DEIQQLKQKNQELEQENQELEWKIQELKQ
The test is described as follows: two-hybrid library CCNG1.

Test [41] addresses T41, 4H953-bN.
T41 chain: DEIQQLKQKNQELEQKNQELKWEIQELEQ
Description: two-hybrid library CCNG1.

Test [42] addresses T42, 4H3462-bN.
T42 chain: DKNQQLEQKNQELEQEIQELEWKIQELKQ
Description: two-hybrid library CCNG1.

The target of test [43] is T43, 4H3112-bN.
T43 chain: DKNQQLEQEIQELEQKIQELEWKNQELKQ
The test is described as follows: two-hybrid library CCNG1.

The target in test [44] is T44, 4H3427-bN.
T44 chain: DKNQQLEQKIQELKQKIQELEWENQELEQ
The test is described as follows: two-hybrid library CCNG1.

The target in test [45] is T45, 4H3277-bN.
T45 chain: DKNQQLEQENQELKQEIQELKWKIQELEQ
Description: two-hybrid library CCNG1.

Test [46] has as its target T46, 4H1348-bN.
T46 chain: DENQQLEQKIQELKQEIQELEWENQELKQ
The test is described as follows: two-hybrid library CCNG1.

Test [47] concerns the target T47, 4H1899-bN.
T47 chain: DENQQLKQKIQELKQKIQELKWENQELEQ
Description: two-hybrid library CCNG1.

Test [48] has as its target T48, 4H3364-bN.
T48 chain: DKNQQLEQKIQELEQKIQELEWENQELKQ
Description: two-hybrid library CCNG1.

For test [49], the target named is T49, 4H2673-bN.
T49 chain: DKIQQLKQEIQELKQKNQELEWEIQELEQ
Description: two-hybrid library CCNG1.

In test [50] the target is T50, 4H968-bN.
T50 chain: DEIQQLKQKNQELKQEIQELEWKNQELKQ
The test is described as follows: two-hybrid library CCNG1.

The target in test [51] is T51, 4H118-bN.
T51 chain: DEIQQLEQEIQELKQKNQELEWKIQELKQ
The test is described as follows: two-hybrid library CCNG1.

Test [52] concerns the target T52, 4H1544-bN.
T52 chain: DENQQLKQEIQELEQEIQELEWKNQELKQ
The test is described as follows: two-hybrid library CCNG1.

For test [53], the target named is T53, 4H591-bN.
T53 chain: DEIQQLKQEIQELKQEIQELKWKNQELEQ
The test is described as follows: two-hybrid library CCNG1.

The target in test [54] is T54, 4H3613-bN.
T54 chain: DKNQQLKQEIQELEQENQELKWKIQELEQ
Description: two-hybrid library CCNG1.

For test [55], the target named is T55, 4H3497-bN.
T55 chain: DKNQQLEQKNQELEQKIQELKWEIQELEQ
The test is described as follows: two-hybrid library CCNG1.

The target in test [56] is T56, 4H2586-bN.
T56 chain: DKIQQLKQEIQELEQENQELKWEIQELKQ
Description: two-hybrid library CCNG1.

For test [57], the target named is T57, Core_NNNI-es_KKEE.
T57 chain: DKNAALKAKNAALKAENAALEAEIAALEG
Description: two-hybrid library CCmax. The following applies: mean of both orientations.

Test [58] deals with T58, Core_NINN-es_KKKK.
T58 chain: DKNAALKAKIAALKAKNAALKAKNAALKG
The test is described as follows: two-hybrid library CCmax. The following applies: mean of both orientations.

Regarding DKNEELKRENEELERKIERLKEKIRYLKE [P10SHb], the interaction score was -0.4 in test [1]; 1.97 in test [2]; -0.49 in [3]; -0.582 in test [4]; 1.07 in [5]; 0.734 in test [6]. The interaction score is 0.808 in test [7]; 1.08 in test [8]; -1.44 in test [9]; 0.782 in [10]; -0.0171 in [11]; -1.86 in test [12].
Take DENQQLEQEIQELEQKNQELKWEIQELEQ [4H1081-bN]: the interaction score was -0.498 in test [13]; -1.04 in test [14]; 1.86 in [15]; -2 in test [16]; -1.1 in [17]; -0.856 in test [18]. Further, the interaction score in test [19] is -1.12; in test [20] it was -1.12; in [21] it was -1.65; in [22], -0.831; in test [23], 0.0755; in [24], -1.6. Further, the interaction score was -1.78 in test [25]; -0.916 in test [26]; -0.589 in test [27]; -0.379 in test [28]; -1.43 in test [29]; -1.72 in test [30]. The interaction score was -0.745 in [31]; -0.661 in [32]; -1.36 in test [33]; -0.855 in [34]; -0.818 in test [35]; -0.602 in test [36]. For the same molecule, the interaction score was -0.961 in [37]; -1.74 in test [38]; -0.711 in test [39]; -1.87 in test [40]; -0.906 in test [41]; -0.385 in [42]. Moreover, the interaction score in [43] is -0.643; in test [44], -0.819; in test [45], -2.73; in test [46], -1.49; in test [47], -0.693; in test [48], 0.163. Besides, the interaction score in test [49] is -0.316; in test [50] it was -1.97; in [51], -0.492; in [52], -1.22; in test [53], -1; in test [54], -1.17. The interaction score is -0.836 in [55] and -0.764 in test [56].
In test [57], DENAALEAENAALEAKNAALKAKIAALKG [Core_NNNI-es_EEKK] displayed an interaction score of 2.38.
As for DENAALEAEIAALEAENAALEAENAALEG [Core_NINN-es_EEEE], in test [58], the interaction score was 2.
